Assays:
[1] = molecular target: SARS-CoV S1 (SARS-CoV, UniProt P59594 14-667); experiment: BLI (Octet)
[2] = molecular target: T1, HCoV-HKU1 S1 (HCoV-HKU1, UniProt Q5MQD0 13-760); experiment: BLI (Octet)
T1 construct: domain: S1
T1 sequence: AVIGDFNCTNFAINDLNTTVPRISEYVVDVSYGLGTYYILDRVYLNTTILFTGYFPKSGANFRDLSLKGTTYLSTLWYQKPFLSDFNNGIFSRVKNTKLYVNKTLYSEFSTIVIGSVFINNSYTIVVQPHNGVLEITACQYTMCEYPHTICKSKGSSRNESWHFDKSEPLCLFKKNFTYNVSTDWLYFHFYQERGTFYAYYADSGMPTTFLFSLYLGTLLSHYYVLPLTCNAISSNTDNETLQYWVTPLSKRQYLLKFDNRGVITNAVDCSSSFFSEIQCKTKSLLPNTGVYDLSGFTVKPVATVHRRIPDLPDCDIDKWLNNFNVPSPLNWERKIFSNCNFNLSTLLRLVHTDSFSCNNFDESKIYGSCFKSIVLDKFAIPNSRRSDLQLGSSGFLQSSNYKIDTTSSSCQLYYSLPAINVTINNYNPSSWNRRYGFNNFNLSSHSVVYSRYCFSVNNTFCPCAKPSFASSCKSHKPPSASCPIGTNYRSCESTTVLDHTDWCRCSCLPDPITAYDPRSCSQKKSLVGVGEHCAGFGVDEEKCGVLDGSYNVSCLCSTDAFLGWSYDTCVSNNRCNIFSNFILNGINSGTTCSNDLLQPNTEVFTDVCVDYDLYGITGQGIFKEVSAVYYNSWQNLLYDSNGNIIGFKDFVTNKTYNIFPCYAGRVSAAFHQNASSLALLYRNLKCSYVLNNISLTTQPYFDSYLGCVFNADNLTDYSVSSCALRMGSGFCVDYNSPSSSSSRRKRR

[3] = molecular target: T2, MERS-CoV RBD (MERS-CoV, UniProt K9N5Q8 367-606); experiment: BLI (Octet)
T2 sequence: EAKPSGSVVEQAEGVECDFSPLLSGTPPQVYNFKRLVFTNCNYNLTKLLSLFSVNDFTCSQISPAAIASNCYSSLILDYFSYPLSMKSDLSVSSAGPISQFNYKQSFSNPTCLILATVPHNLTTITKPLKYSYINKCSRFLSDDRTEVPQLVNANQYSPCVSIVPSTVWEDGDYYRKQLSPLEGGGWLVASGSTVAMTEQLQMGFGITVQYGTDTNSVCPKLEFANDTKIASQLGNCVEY

[4] = molecular target: SARS-CoV-2 spike D614 (pseudovirus) (SARS-CoV-2, UniProt P0DTC2 14-1273); experiment: cell-based or functional assay
[5] = molecular target: SARS-CoV-2 spike 'D614 or G614' (pseudovirus) (SARS-CoV-2, UniProt P0DTC2 14-1273); experiment: cell-based or functional assay

B1: No. 139 항체 (Full IgG) (antibody, V domains shown)
VH: QITLKESGPTLVKPTQTLTLTCSFSGFSLSTSGVGVGWIRQPPGKALEWLALIDWDDNKYHTTSLKTRLTISKDTSKNQVVLTMTNMDPVDTATYYCARIPGFLRYRNRYYYYGMDVWGQGTTVTVSS
VL: ELVLTQPPSVSAAPGQKVTISCSGSSSNIGNNYVSWYQQLPGTAPKLLIYDNNKRPSGIPDRFSGSKSGTSATLGITGLQTGDEADYYCGTWDSSLSAGVFGGGTELTVL
B1: no binding [1]; no binding [2]; no binding [3]. For the same binder, the “IC50, pseudovirus neutralisation” value [4] was 0.378 ng/mL and the “IC50, pseudovirus neutralisation” value [5] was 0.35 ng/mL.

— patent KR20220012810A (dated 2022)
